Measured values taken from patent publication US20210340530A1 (INTELLIA THERAPEUTICS, published 2021).

Columns and labels:
[1] = biological target: T1, WT1 (Wilms' tumor protein) peptide on HLA-A*02:01 (human); test: killing
T1 peptide: RMFPNAPYL

[2] = biological target: T2, … (VLD) WT1 peptide pulsed on target cells (HLA-02.01 positive T2 cell line; OCI-AML3); test: cell-based or functional assay
[3] = biological target: T3, … (RMF) WT1 peptide pulsed on target cells (HLA-02.01 positive T2 cell line; OCI-AML3); test: cell-based or functional assay
[4] = biological target: T2, … (VLD) WT1 peptide pulsed on target …; test: cell-based or functional assay; remark: listed apart in the source
[5] = biological target: T2, … (VLD) WT1 peptide pulsed on target …; test: cell-based or functional assay; remark: listed apart in the source
[6] = biological target: T2, … (VLD) WT1 peptide pulsed on target …; test: cell-based or functional assay; remark: listed apart in the source
[7] = biological target: T3, … (RMF) WT1 peptide pulsed on target …; test: cell-based or functional assay; remark: listed apart in the source
[8] = biological target: T2, … (VLD) WT1 peptide pulsed on target …; test: cell-based or functional assay; remark: listed apart in the source
[9] = biological target: T3, … (RMF) WT1 peptide pulsed on target …; test: cell-based or functional assay; remark: listed apart in the source
[10] = biological target: T4, VLD-Tetramer (pMHC tetramer with WT1 peptide …); test: flow cytometry, VLD-Tetramer staining of engineered T cells; TRAC RNP only
T4 construct: Staining reagent; also called VLD (Wilms' tumor antigen) tetramer; TCR specific pMHC tetramer
Protocol: (§1) Four to 12 days after RNP nucleofection, edited T cells (200 ul/200,000 cells) were collected in a 96 well round bottom plate and spun down at 500 g for 5 minutes. Cells were then resuspended in an antibody mixture containing a combination of antibodies targeting CD3, CD4, CD8, CD45RO, CD45RA, CD27, CCR7, CD62L, and/or the TCR specific pMHC tetramer or TCR specific Vbeta chain antibody. The mixture was incubated for 45 minutes at room temperature in the dark. Samples were spun down at 500 g for 5 minutes, cell pellets collected, and resuspended in 1:10,000 DAPI (Biolegend—#422801) in FACS buffer. Flow cytometry was then performed using the cytoflex according to the manufacturer's instructions.
(§2) T cells were evaluated with additional engineered TCRs for the impact of endogenous beta chains on pairing of both the inserted alpha chain and inserted beta chain. The experiment was performed as described herein except tetramer staining was used to measure MFI and the AAV inserts in Table 31 were used for transduction.

[11] = biological target: T4, VLD-Tetramer (pMHC tetramer with WT1 …); test: flow cytometry, VLD-Tetramer staining of engineered T cells; TRAC + TRBC RNP
Protocol: as §1, §2

B1: TCR-F (TCR, V domains shown)
Valpha: AQKITQTQPGMFVQEKEAVTLDCTYDTSDPSYGLFWYKQPSSGEMIFLIYQGSYDQQNATEGRYSLNFQKARKSANLVISASQLGDSAMYFCAISGNTPLVFGKGTRLSVIA
Vbeta: AAGVIQSPRHLIKEKRETATLKCYPIPRHDTVYWYQQGPGQDPQFLISFYEKMQSDKGSIPDRFSAQQFSDYHSELNMSSLELGDSALYFCASSLRGGLEKLFFGSGTQLSVL
binding result [1]: no recognition

B2: TCR-G (TCR, V domains shown)
Valpha: DQQVKQNSPSLSVQEGRISILNCDYTNSMFDYFLWYKKYPAEGPTFLISISSIKDKNEDGRFTVFLNKSAKHLSLHIVPSQPGDSAVYFCAARGQGNLIFGKGTKLSVKP
Vbeta: EAGVAQSPRYKIIEKRQSVAFWCNPISGHATLYWYQQILGQGPKLLIQFQNNGVVDDSQLPKDRFSAERLKGVDSTLKIQPAKLEDSAVYLCASSLYRGEQYFGPGTRLTVT
binding result [1]: no recognition

B3: TCR-H (WT1-specific T-cell receptor) (TCR, V domains shown)
V domain 1: RKEVEQDPGPFNVPEGATVAFNCTYSNSASQSFFWYRQDCRKEPKLLMSVYSSGNEDGRFTAQLNRASQYISLLIRDSKLSDSATYLCVVKPDPGAGSYQLTFGKGTKLSVIP
V domain 2: NAGVTQTPKFRVLKTGQSMTLLCAQDMNHEYMYWYRQDPGMGLRLIHYSVGEGTTAKGEVPDGYNVSRLKKQNFLLGLESAAPSQTSVYFCASRGYHRLNNEQFFGPGTRLTVLE
notes: also called AV16-TCR-H
Caspase 3/7 integrated intensity; TRAC only; 0 nM VLD; T2 [2]: 6560
Caspase 3/7 integrated intensity; TRAC only; 0.005 nM VLD; T2 [2]: 7650
Caspase 3/7 integrated intensity; TRAC only; 0.05 nM VLD; T2 [2]: 23600
Caspase 3/7 integrated intensity; TRAC only; 0.5 nM VLD; T2 [2]: 550000
Caspase 3/7 integrated intensity; TRAC only; 5 nM VLD; T2 [2]: 992000
Caspase 3/7 integrated intensity; TRAC only; 50 nM VLD; T2 [2]: 1.08e+06
Caspase 3/7 integrated intensity; TRAC only; 500 nM VLD; T2 [2]: 1.18e+06
Caspase 3/7 integrated intensity; TRAC/TRBC; 0 nM VLD; T2 [2]: 7390
Caspase 3/7 integrated intensity; TRAC/TRBC; 0.005 nM VLD; T2 [2]: 9820
Caspase 3/7 integrated intensity; TRAC/TRBC; 0.05 nM VLD; T2 [2]: 32400
Caspase 3/7 integrated intensity; TRAC/TRBC; 0.5 nM VLD; T2 [2]: 628000
Caspase 3/7 integrated intensity; TRAC/TRBC; 5 nM VLD; T2 [2]: 984000
Caspase 3/7 integrated intensity; TRAC/TRBC; 50 nM VLD; T2 [2]: 1.08e+06
Caspase 3/7 integrated intensity; TRAC/TRBC; 500 nM VLD; T2 [2]: 1.18e+06
Caspase 3/7 integrated intensity; TRAC only; 500 nM RMF; T2 [3]: 4190
Caspase 3/7 integrated intensity; TRAC/TRBC; 500 nM RMF; T2 [3]: 3890
IL2 release; TRAC only; 0 nM VLD; T2 [4]: 102 pg/mL
IL2 release; TRAC only; 0.005 nM VLD; T2 [4]: 44 pg/mL
IL2 release; TRAC only; 0.05 nM VLD; T2 [4]: 2 pg/mL
IL2 release; TRAC only; 0.5 nM VLD; T2 [4]: 23 pg/mL
IL2 release; TRAC only; 5 nM VLD; T2 [4]: 175 pg/mL
IL2 release; TRAC only; 50 nM VLD; T2 [4]: 111 pg/mL
IL2 release; TRAC only; 500 nM VLD; T2 [4]: 387 pg/mL
IL2 release; TRAC/TRBC; 0 nM VLD; T2 [4]: 17 pg/mL
IL2 release; TRAC/TRBC; 0.005 nM VLD; T2 [4]: 15 pg/mL
IL2 release; TRAC/TRBC; 0.05 nM VLD; T2 [4]: 40 pg/mL
IL2 release; TRAC/TRBC; 0.5 nM VLD; T2 [4]: 17 pg/mL
IL2 release; TRAC/TRBC; 5 nM VLD; T2 [4]: 30 pg/mL
IL2 release; TRAC/TRBC; 50 nM VLD; T2 [4]: 286 pg/mL
IL2 release; TRAC/TRBC; 500 nM VLD; T2 [4]: 455 pg/mL
IFN-gamma release; TRAC/TRBC; 50 nM VLD; T2 [5]: 16100
IFN-gamma release; TRAC/TRBC; 500 nM VLD; T2 [5]: 24400
IFN-gamma release; only TRAC; 50 nM VLD; T2 [5]: 15900
IFN-gamma release; only TRAC; 500 nM VLD; T2 [5]: 24300
% CD4+ TNFa+ IFNg+; TRAC/TRBC; 0 nM VLD; T2 [6]: 3.1%
% CD4+ TNFa+ IFNg+; TRAC/TRBC; 0.005 nM VLD; T2 [6]: 2.1%
% CD4+ TNFa+ IFNg+; TRAC/TRBC; 0.05 nM VLD; T2 [6]: 3%
% CD4+ TNFa+ IFNg+; TRAC/TRBC; 0.5 nM VLD; T2 [6]: 4.4%
% CD4+ TNFa+ IFNg+; TRAC/TRBC; 5 nM VLD; T2 [6]: 6%
% CD4+ TNFa+ IFNg+; TRAC/TRBC; 50 nM VLD; T2 [6]: 6.9%
% CD8+ TNFa+ IFNg+; TRAC/TRBC; 0 nM VLD; T2 [6]: 0.5%
% CD8+ TNFa+ IFNg+; TRAC/TRBC; 0.005 nM VLD; T2 [6]: 3.7%
% CD8+ TNFa+ IFNg+; TRAC/TRBC; 0.05 nM VLD; T2 [6]: 27.1%
% CD8+ TNFa+ IFNg+; TRAC/TRBC; 0.5 nM VLD; T2 [6]: 48.7%
% CD8+ TNFa+ IFNg+; TRAC/TRBC; 5 nM VLD; T2 [6]: 67.5%
% CD8+ TNFa+ IFNg+; TRAC/TRBC; 50 nM VLD; T2 [6]: 79.2%
% CD4+ TNFa+ IFNg+; TRAC/TRBC; 50 nM RMF; T2 [7]: 2.9%
% CD8+ TNFa+ IFNg+; TRAC/TRBC; 50 nM RMF; T2 [7]: 0.6%
% CD4+ CD107a+; TRAC/TRBC; 0 nM VLD; T2 [8]: 3.42%
% CD4+ CD107a+; TRAC/TRBC; 0.005 nM VLD; T2 [8]: 3.63%
% CD4+ CD107a+; TRAC/TRBC; 0.05 nM VLD; T2 [8]: 4.48%
% CD4+ CD107a+; TRAC/TRBC; 0.5 nM VLD; T2 [8]: 6.82%
% CD4+ CD107a+; TRAC/TRBC; 5 nM VLD; T2 [8]: 8.09%
% CD4+ CD107a+; TRAC/TRBC; 50 nM VLD; T2 [8]: 8.28%
% CD8+ CD107a+; TRAC/TRBC; 0 nM VLD; T2 [8]: 2.29%
% CD8+ CD107a+; TRAC/TRBC; 0.005 nM VLD; T2 [8]: 5.05%
% CD8+ CD107a+; TRAC/TRBC; 0.05 nM VLD; T2 [8]: 23.6%
% CD8+ CD107a+; TRAC/TRBC; 0.5 nM VLD; T2 [8]: 45.6%
% CD8+ CD107a+; TRAC/TRBC; 5 nM VLD; T2 [8]: 60.7%
% CD8+ CD107a+; TRAC/TRBC; 50 nM VLD; T2 [8]: 70.5%
% CD4+ CD107a+; TRAC/TRBC; 50 nM RMF; T2 [9]: 3.7%
% CD8+ CD107a+; TRAC/TRBC; 50 nM RMF; T2 [9]: 2.64%
Mean % Tetramer+ (CD4+) [10]: 71.7%
Mean % Tetramer+ (CD8+) [10]: 68.8%
Mean Tetramer MFI (CD4+) [10]: 64300 MFI
Mean Tetramer MFI (CD8+) [10]: 75200 MFI
Mean % Tetramer+ (CD4+) [11]: 80.2%
Mean % Tetramer+ (CD8+) [11]: 77.1%
Mean Tetramer MFI (CD4+) [11]: 131000 MFI
Mean Tetramer MFI (CD8+) [11]: 139000 MFI

B4: TCR-H (TCR, V domains shown)
Valpha: RKEVEQDPGPFNVPEGATVAFNCTYSNSASQSFFWYRQDCRKEPKLLMSVYSSGNEDGRFTAQLNRASQYISLLIRDSKLSDSATYLCVVKPDPGAGSYQLTFGKGTKLSVIP
Vbeta: NAGVTQTPKFRVLKTGQSMTLLCAQDMNHEYMYWYRQDPGMGLRLIHYSVGEGTTAKGEVPDGYNVSRLKKQNFLLGLESAAPSQTSVYFCASRGYHRLNNEQFFGPGTRLTVL
binding result [1]: no recognition
